{
  "source": "the RNAGym collection of RNA variant scans (doi:10.1073/pnas.2313332121)",
  "parents": {"B1": {"name": "TPR 5TU (parent)", "chain": "GGAUCUUCUCGAUCUAACAAAAAAGACAAAUCUGCCACAAAGCUUGAGAGCAUCUUCGGAUGCAGAGGCGGCAGCCUUCGGUGGCGCGAUAGCGCCAACGUUCUCAACUAUGACACGCAAAACGCGUGCUCCGUUGAAUGGAGUUUAUCAUG"}},
  "note": "Fewer inactive variants are shown than the library holds.",
  "data": [
    {"variants_of": "B1", "assay": "polymerase ribozyme fitness, log enrichment relative to wild type (log ratio); higher = more active; in vitro selection for triplet polymerase activity", "method_in_brief": "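The heterodimeric triplet polymerase ribozyme's subunits were each mutagenized into PCR-built libraries and transcribed. Every library was selected once, in triplicate, by annealing with a biotinylated primer, the partner subunit and triplets, incubating frozen at −7 °C, gel-excising extended constructs, capturing on streptavidin beads and running RT-PCR. Input and output libraries were Illumina-sequenced, with genotypes kept only at ≥10 input reads and ≥1 read per output. Fitness, from inverse-variance-weighted replicate averages, is the base-2 logarithm of genotype enrichment over wild-type enrichment.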", "values": [
      {"variant": "A12U C85U G136U", "polymerase ribozyme fitness (log ratio)": -3.16},
      {"variant": "C14A A20U A21U U102G", "polymerase ribozyme fitness (log ratio)": "≤ -4.2"},
      {"variant": "U13A A23G C27U A28C C54U C85U C93U A115C C116G A121G A150C", "polymerase ribozyme fitness (log ratio)": -3.82},
      {"variant": "C14A U15G A26U G86U G92U A107U U109A C116A", "polymerase ribozyme fitness (log ratio)": "≤ -4.2"},
      {"variant": "C14G A39C C54G G71U C79G", "polymerase ribozyme fitness (log ratio)": "≤ -4.2"},
      {"variant": "C14G G88U U102A", "polymerase ribozyme fitness (log ratio)": "≤ -4.2"},
      {"variant": "A12U A39U A73U G80A C93A G141U", "polymerase ribozyme fitness (log ratio)": "≤ -4.2"},
      {"variant": "U13C G94C U104G", "polymerase ribozyme fitness (log ratio)": -2.15},
      {"variant": "C14G C27G G58A G86U U127C", "polymerase ribozyme fitness (log ratio)": -4.16},
      {"variant": "C14G U61A", "polymerase ribozyme fitness (log ratio)": -3.55},
      {"variant": "C14G U61G", "polymerase ribozyme fitness (log ratio)": -3.62},
      {"variant": "A12G U55C C57G C87G A121G U148A A150C", "polymerase ribozyme fitness (log ratio)": "≤ -4.2"},
      {"variant": "A12U C54A", "polymerase ribozyme fitness (log ratio)": -1.78},
      {"variant": "C14G U55A G84A G141A", "polymerase ribozyme fitness (log ratio)": -3.7},
      {"variant": "U13A A17G A49C A107G", "polymerase ribozyme fitness (log ratio)": "≤ -4.2"},
      {"variant": "U13C U31G C32G C76U C131G", "polymerase ribozyme fitness (log ratio)": "≤ -4.2"},
      {"variant": "C14G U31A A40U U90G G92A A107G G112A G133U G141A", "polymerase ribozyme fitness (log ratio)": "≤ -4.2"},
      {"variant": "A12U A39U U55A G68A C96U U145G", "polymerase ribozyme fitness (log ratio)": "≤ -4.2"},
      {"variant": "C14G A20C C38U A147U", "polymerase ribozyme fitness (log ratio)": -2.09},
      {"variant": "U13G C79A C103U", "polymerase ribozyme fitness (log ratio)": "≤ -4.2"},
      {"variant": "U13C C18G A21U A40C U53G A60U U61A G94U G100A G126A", "polymerase ribozyme fitness (log ratio)": "≤ -4.2"},
      {"variant": "U13G C27A C36U A40C A60G A138G", "polymerase ribozyme fitness (log ratio)": "≤ -4.2"},
      {"variant": "C14G U15C C18U A39U A49C G80C A110C", "polymerase ribozyme fitness (log ratio)": "≤ -4.2"},
      {"variant": "U13G U31C A40G G58U U78C C85G C114U G141U", "polymerase ribozyme fitness (log ratio)": "≤ -4.2"},
      {"variant": "C14G C57U", "polymerase ribozyme fitness (log ratio)": -2.06},
      {"variant": "C14G C57A", "polymerase ribozyme fitness (log ratio)": -1.52},
      {"variant": "U13A A16G G86U", "polymerase ribozyme fitness (log ratio)": -2.89},
      {"variant": "C14A G59A U82A G84U", "polymerase ribozyme fitness (log ratio)": -4.06},
      {"variant": "C14G A20C G92C C125G", "polymerase ribozyme fitness (log ratio)": -3.88},
      {"variant": "A12U A23U U45C A97G A98U C131G C132U", "polymerase ribozyme fitness (log ratio)": -4.12},
      {"variant": "C14A C85A C129U", "polymerase ribozyme fitness (log ratio)": -2.79},
      {"variant": "A12U A20G A21C U31A C35G G86U A91G A119U G128C", "polymerase ribozyme fitness (log ratio)": -3.91},
      {"variant": "C14A G34A A40C U55G C87G C114G G117U A121C U139A", "polymerase ribozyme fitness (log ratio)": "≤ -4.2"},
      {"variant": "C14G C35U G42C A52U C75A C79G G92C C118U G140C", "polymerase ribozyme fitness (log ratio)": -4.09},
      {"variant": "C14G U56A A73G U135C", "polymerase ribozyme fitness (log ratio)": -4.12},
      {"variant": "C14G G83A", "polymerase ribozyme fitness (log ratio)": -2.42},
      {"variant": "C14A C69G C75A G92U G140U", "polymerase ribozyme fitness (log ratio)": "≤ -4.2"},
      {"variant": "C14G C75U", "polymerase ribozyme fitness (log ratio)": -2.58},
      {"variant": "C14G C27G U55G G68A U82A G94C A107U A142G", "polymerase ribozyme fitness (log ratio)": "≤ -4.2"},
      {"variant": "U13A A41G C85G A147G", "polymerase ribozyme fitness (log ratio)": -2.67},
      {"variant": "C14G C18U A22C A40C U53A C75A U77A G94C G117U A119G C149G", "polymerase ribozyme fitness (log ratio)": "≤ -4.2"},
      {"variant": "C14A A41C G94C", "polymerase ribozyme fitness (log ratio)": -2.95},
      {"variant": "A12G U56G C96U A120U", "polymerase ribozyme fitness (log ratio)": -0.669},
      {"variant": "U13A A24U C87A C123A", "polymerase ribozyme fitness (log ratio)": "≤ -4.2"},
      {"variant": "A12U U15G A39U G86U U102G C116U", "polymerase ribozyme fitness (log ratio)": "≤ -4.2"},
      {"variant": "A12U G59U G94C C114U", "polymerase ribozyme fitness (log ratio)": -2.68},
      {"variant": "U13G U44A G124C U144G", "polymerase ribozyme fitness (log ratio)": "≤ -4.2"},
      {"variant": "A12U U55A G141A", "polymerase ribozyme fitness (log ratio)": -1.32},
      {"variant": "C14G A24G A41U G67A G152A", "polymerase ribozyme fitness (log ratio)": "≤ -4.2"},
      {"variant": "C14G G48C U146A", "polymerase ribozyme fitness (log ratio)": -4.06},
      {"variant": "A12U G84A", "polymerase ribozyme fitness (log ratio)": -1.05},
      {"variant": "U13C", "polymerase ribozyme fitness (log ratio)": -0.269},
      {"variant": "U13A", "polymerase ribozyme fitness (log ratio)": -0.225},
      {"variant": "U13G", "polymerase ribozyme fitness (log ratio)": -0.261},
      {"variant": "C14G C85U C103U", "polymerase ribozyme fitness (log ratio)": -3.1},
      {"variant": "A12U A89U G94U C108G C118U A120C A122C A137C", "polymerase ribozyme fitness (log ratio)": "≤ -4.2"},
      {"variant": "C14A U55A C75U A120U", "polymerase ribozyme fitness (log ratio)": -2.39},
      {"variant": "C14G A24C C35U C57A G84U A97U", "polymerase ribozyme fitness (log ratio)": "≤ -4.2"},
      {"variant": "C14A A16G U45A U55G U61A G65U G94C C96U U101G", "polymerase ribozyme fitness (log ratio)": "≤ -4.2"},
      {"variant": "U13C C14G C57A U101G", "polymerase ribozyme fitness (log ratio)": -1.23},
      {"variant": "C14A U61G U111A A121C", "polymerase ribozyme fitness (log ratio)": "≤ -4.2"},
      {"variant": "C14G G42U G46C G92C A119U G128A", "polymerase ribozyme fitness (log ratio)": "≤ -4.2"},
      {"variant": "C14G U15A C54U C69A C99A U148A", "polymerase ribozyme fitness (log ratio)": "≤ -4.2"},
      {"variant": "C14A C116G", "polymerase ribozyme fitness (log ratio)": -0.826},
      {"variant": "C14G G25C", "polymerase ribozyme fitness (log ratio)": "≤ -4.2"},
      {"variant": "A12U C118U A119C G136A G143C", "polymerase ribozyme fitness (log ratio)": -3.19},
      {"variant": "U13G A19C A29G G50C U127C", "polymerase ribozyme fitness (log ratio)": "≤ -4.2"},
      {"variant": "A12U C14A G42A C96G U111G A122U", "polymerase ribozyme fitness (log ratio)": "≤ -4.2"},
      {"variant": "U13C C18U", "polymerase ribozyme fitness (log ratio)": 0.127},
      {"variant": "A12U G71A C75U G84A C85U G117A", "polymerase ribozyme fitness (log ratio)": "≤ -4.2"},
      {"variant": "A12U C18G C32A G84A C105U U127G", "polymerase ribozyme fitness (log ratio)": "≤ -4.2"},
      {"variant": "A12U A17G A23G C35U G83A C87G G136U", "polymerase ribozyme fitness (log ratio)": "≤ -4.2"},
      {"variant": "A12U G25C C35U U77G G94U", "polymerase ribozyme fitness (log ratio)": "≤ -4.2"},
      {"variant": "U13A C54G G68A C75G C76G U90G C95G A119U", "polymerase ribozyme fitness (log ratio)": "≤ -4.2"},
      {"variant": "A12U C36G G92C A147G", "polymerase ribozyme fitness (log ratio)": "≤ -4.2"},
      {"variant": "C14G A28C A47G U53A G84U", "polymerase ribozyme fitness (log ratio)": "≤ -4.2"},
      {"variant": "C14G A22G G25A A28C G50C G84U U104G", "polymerase ribozyme fitness (log ratio)": "≤ -4.2"},
      {"variant": "U13G A91U", "polymerase ribozyme fitness (log ratio)": "≤ -4.2"},
      {"variant": "U13C A26U A52C U55A G88A A89C C99U U135G A142U", "polymerase ribozyme fitness (log ratio)": "≤ -4.2"},
      {"variant": "C14G A52C G58A C96U C125G", "polymerase ribozyme fitness (log ratio)": -3.92},
      {"variant": "U13C A26U U56A G58C C63A G74U G88C A97U", "polymerase ribozyme fitness (log ratio)": "≤ -4.2"},
      {"variant": "C14U A16U C27A A30G G42U C51U C93A", "polymerase ribozyme fitness (log ratio)": "≤ -4.2"},
      {"variant": "C14G U139G U144G", "polymerase ribozyme fitness (log ratio)": -1.38},
      {"variant": "U13G G83C U145C", "polymerase ribozyme fitness (log ratio)": -3.39}
    ]}
  ]
}
